In one assay the target is HA wild type Ran (UniProt P62826 1-216). The experiment in a line: co-expression and co-immunoprecipitation. From the text: To address more directly the relative binding in vivo of Nercc to Ran-GDP compared to Ran-GTP, the cytoplasmic wild type Nercc and a nuclear form of full length Nercc (NLS-Nercc) were each co-expressed with wild type Ran or Ran mutants that bind GDP (T24N) or GTP (G19V) exclusively; either Ran or Nercc was immunoprecipitated and probed for the association with the other polypeptide. The full-length wild type Nercc bound co-expressed wild type Ran and Ran T24N to a greater extent than RanG19V.

Assay [1] deals with T1, FLAG Nercc (full-length wild type Nercc1 kinase with FLAG epitope tag) (human, UniProt Q8TD19 1-979).
T1 construct: Expressed in HEK293 cells; also called FLAG Nercc1; FLAG Nercc full length (FL)
T1 sequence: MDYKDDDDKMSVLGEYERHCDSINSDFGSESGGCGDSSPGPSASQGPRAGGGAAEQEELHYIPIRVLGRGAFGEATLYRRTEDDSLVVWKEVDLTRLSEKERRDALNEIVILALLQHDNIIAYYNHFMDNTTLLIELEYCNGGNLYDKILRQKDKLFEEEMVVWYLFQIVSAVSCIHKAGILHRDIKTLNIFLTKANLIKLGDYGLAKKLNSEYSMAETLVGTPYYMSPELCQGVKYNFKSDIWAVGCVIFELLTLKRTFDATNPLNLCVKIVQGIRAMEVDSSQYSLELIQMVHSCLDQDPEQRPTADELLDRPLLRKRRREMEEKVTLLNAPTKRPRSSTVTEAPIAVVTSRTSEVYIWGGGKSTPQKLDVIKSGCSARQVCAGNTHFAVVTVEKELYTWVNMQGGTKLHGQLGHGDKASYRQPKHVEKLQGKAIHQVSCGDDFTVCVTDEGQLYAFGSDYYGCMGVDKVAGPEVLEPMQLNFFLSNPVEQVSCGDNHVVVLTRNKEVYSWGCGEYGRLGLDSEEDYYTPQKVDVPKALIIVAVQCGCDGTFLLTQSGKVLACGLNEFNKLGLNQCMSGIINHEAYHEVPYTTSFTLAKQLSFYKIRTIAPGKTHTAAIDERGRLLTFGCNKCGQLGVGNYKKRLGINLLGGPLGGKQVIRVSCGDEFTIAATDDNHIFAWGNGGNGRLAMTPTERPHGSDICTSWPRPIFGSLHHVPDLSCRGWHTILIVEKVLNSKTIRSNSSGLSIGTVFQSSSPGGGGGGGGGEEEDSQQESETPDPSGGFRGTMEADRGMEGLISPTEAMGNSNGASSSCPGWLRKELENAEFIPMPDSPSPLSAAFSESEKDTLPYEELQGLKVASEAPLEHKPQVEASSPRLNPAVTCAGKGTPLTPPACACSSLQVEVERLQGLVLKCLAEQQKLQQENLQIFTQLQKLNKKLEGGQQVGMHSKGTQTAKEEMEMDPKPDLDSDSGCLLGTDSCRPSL
The experiment in a line: binding test of co-expressed proteins; details not given.

In the next assay the target is T2, FLAG Nercc (1-891) (human, UniProt Q8TD19 1-891).
T2 sequence: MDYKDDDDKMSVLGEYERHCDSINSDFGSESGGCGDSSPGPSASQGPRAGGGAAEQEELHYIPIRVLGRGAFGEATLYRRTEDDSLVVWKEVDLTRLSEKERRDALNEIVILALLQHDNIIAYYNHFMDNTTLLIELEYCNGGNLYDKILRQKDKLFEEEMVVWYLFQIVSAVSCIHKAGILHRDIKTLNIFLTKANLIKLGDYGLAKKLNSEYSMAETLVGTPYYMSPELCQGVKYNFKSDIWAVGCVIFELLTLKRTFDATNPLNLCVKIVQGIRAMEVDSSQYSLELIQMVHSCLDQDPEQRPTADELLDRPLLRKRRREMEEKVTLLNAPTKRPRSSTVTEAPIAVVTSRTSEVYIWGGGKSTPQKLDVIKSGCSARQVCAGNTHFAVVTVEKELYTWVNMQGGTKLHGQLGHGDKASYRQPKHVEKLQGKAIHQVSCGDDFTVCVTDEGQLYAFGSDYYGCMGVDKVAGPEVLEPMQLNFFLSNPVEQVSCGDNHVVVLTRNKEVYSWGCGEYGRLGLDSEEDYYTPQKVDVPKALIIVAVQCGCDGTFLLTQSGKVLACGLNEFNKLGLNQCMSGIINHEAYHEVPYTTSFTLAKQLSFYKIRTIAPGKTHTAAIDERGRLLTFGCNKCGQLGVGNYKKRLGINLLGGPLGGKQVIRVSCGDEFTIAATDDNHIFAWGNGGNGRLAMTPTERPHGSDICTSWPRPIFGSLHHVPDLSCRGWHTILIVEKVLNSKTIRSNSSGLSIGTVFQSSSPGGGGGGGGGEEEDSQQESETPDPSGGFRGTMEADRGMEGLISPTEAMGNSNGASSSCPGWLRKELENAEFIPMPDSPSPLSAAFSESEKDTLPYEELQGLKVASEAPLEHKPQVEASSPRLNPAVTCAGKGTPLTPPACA
The assay is described as above.

B1: Nek6 (tag of the construct not stated) (enzyme)
chain: not shown
On to B1, for which the results for the binding result (with HA wild type Ran; in assay [1]; with FLAG Nercc (1-891)) were “no binding”, “binds” and “binds”, respectively.

(Values after patent publication US20060052582A1 (published 2006).)
